Test results reported in patent US20200325237A1 (AVIDITY BIOSCIENCES, published 2020).

How the values were obtained:
[1] = target: T1, hTfR (human transferrin receptor, source and construct not stated) (human, UniProt P02786 89-760, limits assumed); assay: SPR (BioRad ProteOn XPR36), mAb captured on Protein A, hTfR as analyte, 25 C
Description: The binding kinetics of nine exemplary humanized anti-TfR antibodies and the parent chimeric antibody were characterized. Studies were run on a BioRad ProteOn XPR36 optical biosensor using a GLM sensor chip coated with Protein A for mAb capture. Running buffer included 10 mM EPES, 150 mM NaCl, pH 7.4 with 0.05 tween-20 with 0.2 mg/ml BSA. Data were collected at 25 degrees C. All mAbs were diluted into running buffer to 2 ug/ml based on the stock concentration provided. Each was then captured for 40 seconds over a Protein A surface.
hTfR (100 ug) was dissolved into […] of water to yield a 4.3 uM stock concentration. hTfR was dilted to 43 nM as the highest concentration and tested in a 3 fold dilution series. hTfR was injected at 200 ul/min for 2 minutes followed by a one-hour dissociation phase.

[2] = target: T1, hTfR (human transferrin receptor, …); assay: ELISA; ratio of the Kd on HFE-captured hTfR to the Kd on directly coated hTfR
[3] = target: T1, hTfR (human transferrin receptor, …); assay: ELISA, biotinylated antibody on hTfR captured by plate-coated HFE (HFE+TfR)
[4] = target: T1, hTfR (human transferrin receptor, …); assay: ELISA; ratio of the Kd on transferrin-captured hTfR to the Kd on directly coated hTfR
Description: (§1) Antibodies were biotinylated using 50 fold molar excess of EZ-Link No weigh NHS-Biotin (Thermo Scientific A39256) following manufacturer's instructions. Half-well high-bind plates (Costar #3690) were coated with 500 ng/mL purified human holo-transferrin (R&D Systems 2914-HT) in PBS at 4° C. overnight. For comparison, plates were coated directly with hTfR. Plates were washed four times with 100 μL of Tris buffered saline+Tween (20×TBST, Cell Signaling 9997S). 100 μL of Superblock (ThermoFisher PI-37535) was added to each well and incubated for 1 hour at room temperature. The wash step was repeated before the addition of the hTfR (200 ng/mL in 25 μl) to the transferrin plates, or Superblock to the hTfR plates, and incubated for 30 minutes. Biotinylated antibodies were diluted to 20 nM for the high concentration and added to the plates with 3-fold serial dilution. 25 μl/well was added to the 25 μl already in the plate. Plates were incubated for 1 hour, and wash step was repeated. Streptavidin-HRP (R&D Systems DY998) was added following recommended dilution on the package insert, and a final wash step was done. Binding was measured by the addition of 50 μL of 1-Step™ Ultra TMB-ELISA (ThermoFisher, 34028), incubated for 5 minutes, and the reaction was stopped with the addition of 25 μL of Stop Solution 2N sulfuric Acid (R&D Systems DY994). Absorbance was measured at 450 nm, with reference wavelength 570 nm subtracted. Binding constants were determined using GraphPad Prism Specific Binding with Hill Slope. Change in antibody binding constants in the presence versus absense of transferrin is considered relative to the commercially available antibody which is known to have an overlapping epitope with transferrin (AF2474, R&D Systems).

[5] = target: T2, TfR2 (transferrin receptor 2) (UniProt Q9UP52 105-801, limits assumed); assay: A450 plate assay on TfR2 (method not described in the text)
T2 sequence (looked up): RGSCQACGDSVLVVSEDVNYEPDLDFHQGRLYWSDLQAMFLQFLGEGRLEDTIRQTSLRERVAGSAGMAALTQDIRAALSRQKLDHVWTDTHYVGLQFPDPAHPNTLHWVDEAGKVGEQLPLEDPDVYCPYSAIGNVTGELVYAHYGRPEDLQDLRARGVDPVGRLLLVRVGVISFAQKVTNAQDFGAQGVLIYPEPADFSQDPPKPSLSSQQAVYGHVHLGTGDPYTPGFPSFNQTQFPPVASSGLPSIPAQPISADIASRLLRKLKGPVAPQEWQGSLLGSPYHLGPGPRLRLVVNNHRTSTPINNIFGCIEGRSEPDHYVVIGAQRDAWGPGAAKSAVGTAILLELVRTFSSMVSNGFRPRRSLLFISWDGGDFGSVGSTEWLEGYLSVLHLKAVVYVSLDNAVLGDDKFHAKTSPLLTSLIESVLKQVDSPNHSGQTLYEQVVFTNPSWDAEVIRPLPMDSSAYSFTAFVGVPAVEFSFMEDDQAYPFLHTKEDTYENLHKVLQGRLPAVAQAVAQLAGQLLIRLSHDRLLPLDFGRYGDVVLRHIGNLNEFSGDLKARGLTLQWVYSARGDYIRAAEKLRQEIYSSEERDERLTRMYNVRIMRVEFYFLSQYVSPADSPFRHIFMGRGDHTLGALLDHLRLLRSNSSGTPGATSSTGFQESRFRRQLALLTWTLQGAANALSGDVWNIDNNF

[6] = target: T3, recombinant human transferrin receptor protein (Sino Biological 11020-H07H) (human, UniProt P02786 89-760); assay: ELISA on plate-coated recombinant human TfR1 (CD71); fit: specific binding with Hill slope (row labels blank in the lower block; row taken by the order Bmax, h, Kd)
T3 construct: Bought protein coated on ELISA plates; also called recombinant human TfR1; human TfR1
T3 sequence (P02786 89-760 limits assumed): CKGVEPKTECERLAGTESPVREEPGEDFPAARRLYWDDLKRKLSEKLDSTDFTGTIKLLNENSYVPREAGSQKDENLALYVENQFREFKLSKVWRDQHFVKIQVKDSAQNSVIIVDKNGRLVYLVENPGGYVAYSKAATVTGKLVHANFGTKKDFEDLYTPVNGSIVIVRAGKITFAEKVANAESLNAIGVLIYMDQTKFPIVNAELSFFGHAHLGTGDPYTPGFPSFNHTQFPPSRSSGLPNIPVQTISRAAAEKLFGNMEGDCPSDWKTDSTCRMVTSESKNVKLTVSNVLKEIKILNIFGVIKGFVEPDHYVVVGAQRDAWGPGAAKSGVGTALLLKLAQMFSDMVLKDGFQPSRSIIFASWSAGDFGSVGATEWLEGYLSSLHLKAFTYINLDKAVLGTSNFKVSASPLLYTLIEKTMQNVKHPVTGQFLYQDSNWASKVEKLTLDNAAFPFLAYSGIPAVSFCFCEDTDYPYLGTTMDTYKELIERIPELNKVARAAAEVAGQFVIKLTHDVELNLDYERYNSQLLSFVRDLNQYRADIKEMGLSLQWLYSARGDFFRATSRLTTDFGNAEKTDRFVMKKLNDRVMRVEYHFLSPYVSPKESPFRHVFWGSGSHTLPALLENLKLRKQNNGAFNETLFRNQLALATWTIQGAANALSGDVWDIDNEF
Description: (§2) Half-well high-binding 96-well plates (Costar #3690) were coated with recombinant human transferrin receptor protein (Sino Biological 11020-H07H) or recombinant cyno transferrin receptor protein (Sino Biological 90253-C07H) at 1 ng/μL in PBS (Gibco 14190) and incubated overnight at 4° C. Plates were washed four times with 100 μL of Tris buffered saline+Tween (20×TBST, Cell Signaling 9997S). 100 μL of Superblock (ThermoFisher PI-37535) was added to each well and incubated for 1 hour at room temperature. The wash step was repeated before the addition of the samples. Samples were added at concentrations up to 10 nM, 50 μL/well. Plates were incubated for another hour at room temp and wash step repeated. Secondary antibody (Peroxidase AffiniPure Goat Anti-Human IgG, Fcγ Fragment Specific, Jackson Immunoresearch, 109-035-098) was diluted 1:5000 in Superblock and 50 μL/well added. Plates were incubated for 1 hour at room temperature and washed one more time. Binding was measured by the addition of 50 μL of 1-Step™ Ultra TMB-ELISA (ThermoFisher, 34028), incubated for 5 minutes, and the reaction was stopped with the addition of 25 μL of Stop Solution 2N sulfuric Acid (R&D Systems DY994). Absorbance was measured at 450 nm, with reference wavelength 570 nm subtracted. Binding constants were determined using GraphPad Prism Specific Binding with Hill Slope.

[7] = target: T1, hTfR (human transferrin receptor, …); assay: ELISA, biotinylated antibody on hTfR captured by plate-coated HFE (HFE+TfR); fit: specific binding with Hill slope
[8] = target: T1, hTfR (human transferrin receptor, …); assay: ELISA, biotinylated antibody on hTfR captured by plate-coated human holo-transferrin (Tf+TfR); fit: specific binding with Hill slope
Description: as §1

[9] = target: T4, recombinant cyno transferrin receptor protein (Sino Biological 90253-C07H) (cyno, UniProt H9EXL1 89-760 (rhesus entry)); assay: ELISA on plate-coated recombinant cyno TfR1 (CD71); fit: specific binding with Hill slope
T4 construct: Bought protein coated on ELISA plates; also called recombinant cyno TfR1; cynoTfR1
T4 sequence (chain, as listed by the source C07H C07H): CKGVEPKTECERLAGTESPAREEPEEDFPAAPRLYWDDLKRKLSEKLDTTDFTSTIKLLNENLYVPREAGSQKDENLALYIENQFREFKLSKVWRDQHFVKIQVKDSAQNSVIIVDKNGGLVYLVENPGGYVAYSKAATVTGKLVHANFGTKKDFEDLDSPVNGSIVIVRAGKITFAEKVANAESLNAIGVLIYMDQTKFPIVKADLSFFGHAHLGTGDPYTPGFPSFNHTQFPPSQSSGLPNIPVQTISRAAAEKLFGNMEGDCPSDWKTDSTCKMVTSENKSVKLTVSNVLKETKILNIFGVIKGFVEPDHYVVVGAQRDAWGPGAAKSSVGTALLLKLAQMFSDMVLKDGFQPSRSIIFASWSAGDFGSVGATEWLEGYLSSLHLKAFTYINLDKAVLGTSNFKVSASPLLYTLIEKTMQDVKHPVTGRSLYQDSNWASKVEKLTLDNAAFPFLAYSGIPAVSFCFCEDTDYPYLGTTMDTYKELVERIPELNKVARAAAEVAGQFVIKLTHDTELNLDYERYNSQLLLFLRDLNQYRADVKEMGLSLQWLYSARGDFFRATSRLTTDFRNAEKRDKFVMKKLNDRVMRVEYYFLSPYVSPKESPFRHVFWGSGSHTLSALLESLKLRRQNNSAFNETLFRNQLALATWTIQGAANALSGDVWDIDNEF
Description: as §2

T1 sequence (P02786 89-760 limits assumed): as the sequence (P02786 89-760 limits assumed) above

Kd [1]: 0.00999 nM | koff [1]: 6.94e-06 s⁻¹ | kon [1]: 695000 M⁻¹ s⁻¹ | Kd(HFE+TfR)/Kd(TfR) [2]: 8.5 | EC50 (read off the curve) [3]: ~0.2 nM | Kd(Tf+TfR)/Kd(TfR) [4]: 2.4 | binding result [5]: no binding (tested: 1000 nM) | Bmax [6]: 96.5 % max binding | Kd [6]: 0.0063 nM | h [6]: 1.35 | Bmax [7]: 1.81 A450 | Kd [7]: 0.213 nM | h [7]: 1.45 | Bmax [8]: 3.5 A450 | Kd [8]: 0.0604 nM | h [8]: 1.52 | Bmax [9]: 96.4 % max binding | Kd [9]: 0.0103 nM | h [9]: 1.54
B1: 13E4-Variant 15iii (antibody, human IgG1, kappa, L234A L235A)
heavy: QVQLVQSGAEVKKPGASVKVSCKASGYTFTNYWMHWVRQAPGQGLEWMGEINPIQGRSNYAEKFQGRVTLTVDTSSSTAYMELSSLRSEDTATYYCARGTRAMHYWGQGTLVTVSSASTKGPSVFPLAPSSKSTSGGTAALGCLVKDYFPEPVTVSWNSGALTSGVHTFPAVLQSSGLYSLSSVVTVPSSSLGTQTYICNVNHKPSNTKVDKRVEPKSCDKTHTCPPCPAPEAAGGPSVFLFPPKPKDTLMISRTPEVTCVVVDVSHEDPEVKFNWYVDGVEVHNAKTKPREEQYNSTYRVVSVLTVLHQDWLNGKEYKCKVSNKARPAPIEKTISKAKGQPREPQVYTLPPSREEMTKNQVSLTCLVKGFYPSDIAVEWESNGQPENNYKTTPPVLDSDGSFFLYSKLTVDKSRWQQGNVFSCSVMHEALHNHYTQKSLSLSPG
light: DIQMTQSPSSLSASVGDRVTITCRTSENIYSNLAWYQQKPGKAPKLLIYAGTNLADGVPSRFSGSGSGTDYTLTISSLQPEDFANYYCQHFWGTPLTFGGGTKVEIKRTVAAPSVFIFPPSDEQLKSGTASVVCLLNNFYPREAKVQWKVDNALQSGNSQESVTEQDSKDSTYSLSSTLTLSKADYEKHKVYACEVTHQGLSSPVTKSFNRGEC
notes: Humanized hIgG1 with Fc mutations; also called hIgG1 TfR-Var15iii
